Patent US20260167721A1 (ABLEXIS, published 2026)

Legend:
[1] = molecular target: T1, recombinant human CD3 epsilon/delta heterodimer (human, UniProt P07766 23-126; P04234 22-105); test: Octet BLI, mAb on FAB2G sensor, hCD3 E/D 200-50 nM; R^2 0.97
T1 construct: Recombinant protein in solution (200-50 nM) in the Octet assay; also called hCD3 E/D; human CD3E/D
Procedure: (§1) Samples were evaluated by flow cytometry analysis against Jurkat and human Pan-T cells (FIG. 1B) as well as by Octet against recombinant human CD3 proteins to evaluate apparent affinities and binding off-rates (Table 6, infra).

[2] = molecular target: T2, recombinant human CD3 epsilon/gamma heterodimer (human, UniProt P07766 23-126; P09693 23-116); test: Octet BLI, mAb on FAB2G sensor, hCD3 E/G 200-50 nM; R^2 0.94
T2 construct: Recombinant protein in solution (200-50 nM) in the Octet assay; also called hCD3 E/G
Procedure: as §1

[3] = molecular target: T3, CD3 on Jurkat wild-type cells (UniProt P07766 23-207; P04234 22-171; P09693 23-182); test: flow cytometry on Jurkat WT cells, antibody at 1 ug/ml
T3 construct: whole, on cells; also called Jurkat WT

[4] = molecular target: T3, CD3 on Jurkat wild-type cells; test: flow cytometry on Jurkat WT cells, antibody at 10 ug/ml
[5] = molecular target: T4, CD33 on KILR-HL60 cells (UniProt P20138 18-364, limits assumed); test: flow cytometry on KILR-HL60 (CD33 expressing) cells, antibody at 1 ug/ml
T4 construct: whole, on cells; Target of the gemtuzumab arm; also called CD33 expressing cells

[6] = molecular target: T4, CD33 on KILR-HL60 cells; test: flow cytometry on KILR-HL60 (CD33 expressing) cells, antibody at 10 ug/ml

T4 sequence (P20138 18-364 limits assumed): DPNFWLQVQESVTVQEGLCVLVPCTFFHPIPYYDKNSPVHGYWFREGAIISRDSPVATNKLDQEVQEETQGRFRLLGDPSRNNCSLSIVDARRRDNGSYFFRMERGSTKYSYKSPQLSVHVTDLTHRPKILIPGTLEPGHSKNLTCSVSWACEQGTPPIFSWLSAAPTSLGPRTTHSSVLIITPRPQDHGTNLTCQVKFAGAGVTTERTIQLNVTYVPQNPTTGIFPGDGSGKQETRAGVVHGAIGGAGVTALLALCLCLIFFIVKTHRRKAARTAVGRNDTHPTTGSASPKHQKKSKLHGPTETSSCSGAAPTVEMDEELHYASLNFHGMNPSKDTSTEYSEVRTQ
T3 sequence (P07766 23-207, chain 1 of 3): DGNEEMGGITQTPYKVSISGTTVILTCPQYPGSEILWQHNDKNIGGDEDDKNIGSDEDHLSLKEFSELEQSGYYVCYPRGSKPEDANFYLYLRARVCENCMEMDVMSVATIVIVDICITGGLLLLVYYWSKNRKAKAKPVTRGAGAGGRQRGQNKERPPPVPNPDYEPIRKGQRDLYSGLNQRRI
T3 sequence (P04234 22-171, chain 2 of 3): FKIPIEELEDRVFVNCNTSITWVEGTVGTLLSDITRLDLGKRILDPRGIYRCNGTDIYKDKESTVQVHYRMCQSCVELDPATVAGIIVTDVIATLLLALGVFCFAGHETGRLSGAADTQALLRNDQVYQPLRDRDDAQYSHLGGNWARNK
T3 sequence (P09693 23-182, chain 3 of 3): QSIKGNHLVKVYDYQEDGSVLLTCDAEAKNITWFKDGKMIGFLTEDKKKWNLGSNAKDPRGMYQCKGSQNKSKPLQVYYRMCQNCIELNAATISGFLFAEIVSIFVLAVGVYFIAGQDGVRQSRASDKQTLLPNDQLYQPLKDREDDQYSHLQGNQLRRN
T2 sequence (P07766 23-126, chain 1 of 2): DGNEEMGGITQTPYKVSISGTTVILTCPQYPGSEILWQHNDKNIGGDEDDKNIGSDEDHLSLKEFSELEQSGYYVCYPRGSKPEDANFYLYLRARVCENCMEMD
T2 sequence (P09693 23-116, chain 2 of 2): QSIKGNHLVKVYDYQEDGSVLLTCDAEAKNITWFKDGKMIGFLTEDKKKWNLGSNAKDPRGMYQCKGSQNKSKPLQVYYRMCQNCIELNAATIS
T1 sequence (P07766 23-126, stated change not applied, chain 1 of 2): as the sequence (P07766 23-126, chain 1 of 2) above
T1 sequence (P04234 22-105, stated change not applied, chain 2 of 2): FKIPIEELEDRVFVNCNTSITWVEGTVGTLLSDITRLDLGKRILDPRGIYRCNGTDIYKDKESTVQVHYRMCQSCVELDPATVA

B1: ABL-CD3-14 (antibody, V domains shown)
VH: EVQLVESGGGLVKPGGSLRLSCAASGFTCSSYSMTWVRQAPGKGLEWVSSISRRSSYIYYADSVKGRFTISRDNAKNSLYLQLNSLRAEDTAVYYCARERWELLYFDYWGQGTLVTVSS
VL: NFMLTQPHSVSESPGKTVTISCTRSSGSIASNYVQWYQQRPGSSPTTVIYEDNQRPSGVPDRFSGSIDSSSNSASLTISGLKTEDEADYYCQSYDSSNRVFGGGTKLTVL
notes: Chimeric hybridoma mAb: human V, CH1, upper hinge; mouse middle hinge, CH2, CH3
**Q.** Which Kd [1] does the source give for B1 here?
**A.** 12.8 nM

**Q.** What about the Response [1] of the same binder?
**A.** 0.17

**Q.** What about the koff [1] of the same binder?
**A.** 0.00152 s⁻¹

**Q.** What about the kon [1] of the same binder?
**A.** 119000 M⁻¹ s⁻¹

**Q.** What about the Kd [2] of the same binder?
**A.** 9.66 nM

**Q.** And the Response [2]?
**A.** 0.08

**Q.** And the koff [2]?
**A.** 0.00287 s⁻¹

**Q.** And the kon [2]?
**A.** 298000 M⁻¹ s⁻¹

B2: CD3 × CD33-BspAb36 (bispecific antibody)
scFv-Fc: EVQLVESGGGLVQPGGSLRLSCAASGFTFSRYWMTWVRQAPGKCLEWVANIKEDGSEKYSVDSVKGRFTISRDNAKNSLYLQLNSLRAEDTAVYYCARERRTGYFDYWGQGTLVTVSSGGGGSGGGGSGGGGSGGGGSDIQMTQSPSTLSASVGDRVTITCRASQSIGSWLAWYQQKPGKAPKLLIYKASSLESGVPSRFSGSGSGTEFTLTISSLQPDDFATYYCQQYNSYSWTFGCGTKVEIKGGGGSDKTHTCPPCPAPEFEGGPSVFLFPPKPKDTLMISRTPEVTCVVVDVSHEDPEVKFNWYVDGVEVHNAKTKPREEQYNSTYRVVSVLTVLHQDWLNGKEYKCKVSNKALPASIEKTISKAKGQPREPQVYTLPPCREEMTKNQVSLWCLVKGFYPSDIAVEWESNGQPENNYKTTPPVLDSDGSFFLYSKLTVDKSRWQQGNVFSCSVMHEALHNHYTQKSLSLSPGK
heavy: EVQLVQSGAEVKKPGSSVKVSCKASGYTITDSNIHWVRQAPGQSLEWIGYIYPYNGGTDYNQKFKNRATLTVDNPTNTAYMELSSLRSEDTAFYYCVNGNPWLAYWGQGTLVTVSSASTKGPSVFPLAPSSKSTSGGTAALGCLVKDYFPEPVTVSWNSGALTSGVHTFPAVLQSSGLYSLSSVVTVPSSSLGTQTYICNVNHKPSNTKVDKRVEPKSCDKTHTCPPCPAPEFEGGPSVFLFPPKPKDTLMISRTPEVTCVVVDVSHEDPEVKFNWYVDGVEVHNAKTKPREEQYNSTYRVVSVLTVLHQDWLNGKEYKCKVSNKALPASIEKTISKAKGQPREPQVCTLPPSREEMTKNQVSLSCAVKGFYPSDIAVEWESNGQPENNYKTTPPVLDSDGSFFLVSKLTVDKSRWQQGNVFSCSVMHEALHNRFTQKSLSLSPGK
light: DIQLTQSPSTLSASVGDRVTITCRASESLDNYGIRFLTWFQQKPGKAPKLLMYAASNQGSGVPSRFSGSGSGTEFTLTISSLQPDDFATYYCQQTKEVPWSFGQGTKVEVKRTVAAPSVFIFPPSDEQLKSGTASVVCLLNNFYPREAKVQWKVDNALQSGNSQESVTEQDSKDSTYSLSSTLTLSKADYEKHKVYACEVTHQGLSSPVTKSFNRGEC
**Q.** Which flow cytometry signal [3] does the source give for B2 here?
**A.** 12500

**Q.** What about the flow cytometry signal [4] of the same binder?
**A.** 26100

**Q.** And the flow cytometry signal [5]?
**A.** 569000

**Q.** And the flow cytometry signal [6]?
**A.** 746000

B3: CD3 × CD33-BspAb38 (bispecific antibody)
scFv-Fc: not shown
heavy: EVQLVQSGAEVKKPGSSVKVSCKASGYTITDSNIHWVRQAPGQSLEWIGYIYPYNGGTDYNQKFKNRATLTVDNPTNTAYMELSSLRSEDTAFYYCVNGNPWLAYWGQGTLVTVSSASTKGPSVFPLAPSSKSTSGGTAALGCLVKDYFPEPVTVSWNSGALTSGVHTFPAVLQSSGLYSLSSVVTVPSSSLGTQTYICNVNHKPSNTKVDKRVEPKSCDKTHTCPPCPAPEFEGGPSVFLFPPKPKDTLMISRTPEVTCVVVDVSHEDPEVKFNWYVDGVEVHNAKTKPREEQYNSTYRVVSVLTVLHQDWLNGKEYKCKVSNKALPASIEKTISKAKGQPREPQVCTLPPSREEMTKNQVSLSCAVKGFYPSDIAVEWESNGQPENNYKTTPPVLDSDGSFFLVSKLTVDKSRWQQGNVFSCSVMHEALHNRFTQKSLSLSPGK
light: DIQLTQSPSTLSASVGDRVTITCRASESLDNYGIRFLTWFQQKPGKAPKLLMYAASNQGSGVPSRFSGSGSGTEFTLTISSLQPDDFATYYCQQTKEVPWSFGQGTKVEVKRTVAAPSVFIFPPSDEQLKSGTASVVCLLNNFYPREAKVQWKVDNALQSGNSQESVTEQDSKDSTYSLSSTLTLSKADYEKHKVYACEVTHQGLSSPVTKSFNRGEC
**Q.** B3 was tested. Which flow cytometry signal [3] did it give?
**A.** 23700

**Q.** And the flow cytometry signal [4]?
**A.** 34100

**Q.** And the flow cytometry signal [5]?
**A.** 635000

**Q.** What about the flow cytometry signal [6] of the same binder?
**A.** 476000
